From patent US11732029B2, “Methods and compositions for the treatment of wounds” (The University of Chicago, priority 2017, dated 2023)
Read-outs that look alike come from different tables or passages of the source.

What was measured:
PlGF-2 = target: T1, PlGF-2 (Homo sapiens, UniProt P49763); experiment: GF binding to recombinant laminin LG domain protein and synthesized laminin HBD peptides (ELISA); set-up: All growth factors (GFs) and chemokines were purchased in their mature forms; purchased PeproTech; host or cells: Escherichia coli; conditions: plate coated with LG domain protein or peptide, 1 μg/mL GF, vs BSA-coated wells
T1 sequence (P49763 19-170 isoform P49763-3 limits assumed): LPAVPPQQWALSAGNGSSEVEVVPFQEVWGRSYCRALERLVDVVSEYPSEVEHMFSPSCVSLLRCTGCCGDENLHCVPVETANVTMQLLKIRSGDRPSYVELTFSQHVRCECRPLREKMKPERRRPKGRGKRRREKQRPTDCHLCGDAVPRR
Method: (§1) ELISA tests were performed as described above. In brief, ELISA plates were coated with 1 μg/mL of laminin alpha 3 LG domain recombinant protein, laminin alpha 4 LG domain recombinant protein (R&D systems), laminin alpha 5 LG domain recombinant protein (LD BioPharma), or laminin peptide (sequences are described in Table 1, chemically synthesized by Genscript) in PBS for 2 hrs at 37° C. 1 μg/mL of BSA served as non-binding protein control. After blocking with 2% BSA PBS-0.05% Tween 20 (PBS-T) solution, 1 μg/mL of the recombinant human proteins (VEGF-A121, VEGF-A165, PlGF-1, PlGF-2, PDGF-BB or FGF-2) or 10 μg/mL of biotinylated heparin (Sigma-Aldrich) were added. Bound GF was detected with biotinylated antibodies for human VEGF, PlGF, PDGF-BB, or FGF-2 (R&D Systems). The antibodies were detected by streptavidin-HRP (R&D Systems).

FGF-2 = FGF-2 (Homo sapiens, UniProt P09038); experiment: as above; set-up: All growth factors (GFs) and chemokines were purchased in their mature forms; purchased PeproTech; host or cells: Escherichia coli; conditions: plate coated with LG domain protein or peptide, 1 μg/mL GF, vs BSA-coated wells
Method: as §1

GFs = experiment: GF binding to synthesized laminin peptides (ELISA), all tested GFs together; set-up: species or system human; key to Interaction with GFs: ++ indicates high affinities; + indicates medium/low affinities; conditions: summary Table 2
Method: as §1

[1] = tested on: syndecan-1, syndecan-2, syndecan-3, syndecan-4; experiment: Recombinant syndecan binding to synthesized laminin HBD peptides (ELISA); set-up: species or system human; key to Interaction with Syndecans: ++ indicates high affinities; + indicates medium/low affinities
Method: ELISA tests were performed as described above. In brief, ELISA plates were coated with 1 μg/mL laminin peptide (sequences are described in Table 1, chemically synthesized by Genscript) in PBS for 2 hrs at 37° C. 1 μg/mL of BSA served as non-binding protein control. After blocking with 2% BSA PBS-T solution, 1 μg/mL of the recombinant human syndecan-1, syndecan-2, syndecan-3, syndecan-4 (all syndecan proteins are histidine-tagged; SinoBiological) were added. Bound GF was detected with anti-histidine tag antibody (1:1000 dilution, BioLegend).

HUVEC cells = experiment: Migration assay (transwell); format: cell-based, human; conditions: 6 hr, 30 ng/mL VEGF-A165 with or without 0.1 μM peptide
Method: A migration assay was performed as described previously^3. A QCM 24-Well Colorimetric Cell Migration Assay kit was used to perform migration assay. Both sides of inserts were coated with 0.1 μM of bovine collagen I (C4243, Sigma-Aldrich) for 1 hr at 37° C. Then, the inserts were washed with water, dried in a laminar flow cabinet and disposed on 24-well cell culture plate covers. Solutions containing 30 ng/mL of VEGF-A165 preincubated with or without 0.1 μM of α33043-3067 peptide in medium (MCDB-131, 0.05% BSA) were added to the bottom side of the transwell (500 μL/well). Directly thereafter, HUVEC cells in medium containing 0.05% BSA (300 μL/transwell, 4×10^4 cells/transwell) were added to the transwell upper parts. After 6 hr, migrated cells were stained and absorbance at 560 nm was measured according to the manufacturer's instructions.

[2] = Heparin binding to synthesized laminin peptides (ELISA); set-up: key to Interaction with Heparin: ++ indicates high affinities; + indicates medium/low affinities
Method: as §1

HUVEC = experiment: Cell adhesion assay, HUVEC on laminin peptide coated plates; format: cell-based, human; set-up: key to Cell adhesion HUVECs: ++ indicates high affinities; + indicates medium/low affinities
Method: (§2) 96-well plates (non-tissue culture treated, Greiner Bio-one) were pre-coated with 1 μg/mL with laminin HBD peptides in PBS for 2 hrs at 37° C., followed by blocking with 2% BSA PBS for 1 h at RT. Cell adhesion assays were performed using human lung fibroblasts (Lonza) in FGM-2 medium (Lonza) or human umbilical vein endothelial cells (HUVEC; Lonza) in EGM-2 medium (Lonza) supplemented with 1% fetal bovine serum (FBS) and […] VEGF-A165, with or without 5 mM EDTA (Sigma-Aldrich). Cells were plated at 3000 cells/well on laminin peptide pre-coated plates and incubated for 30 min at 37° C., 5% CO2. Then, the medium was removed, and wells were quickly washed three times with PBS. Cell numbers were quantified using a CyQUANT assay, according to the manufacturer's instructions (Invitrogen). All cell lines were checked for mycoplasma contamination and used in passages from 5 to 8.

human lung fibroblasts = experiment: Cell adhesion assay, fibroblasts on laminin peptide coated plates; format: cell-based; set-up: key to Cell adhesion Fibroblasts: ++ indicates high affinities; + indicates medium/low affinities
Method: as §2

PDGF-BB [3] = target: T2, PDGF-BB (Homo sapiens, UniProt P01127); experiment: GF binding to recombinant laminin LG domain protein and synthesized laminin HBD peptides (ELISA); conditions: plate coated with LG domain protein or peptide, 1 μg/mL GF, vs BSA-coated wells
T2 construct: All growth factors (GFs) and chemokines were purchased in their mature forms; purchased PeproTech; host or cells: Escherichia coli
Method: as §1

VEGF-A165 [4] = target: T3, VEGF-A165 (Homo sapiens, UniProt P15692); experiment: as above; conditions: plate coated with LG domain protein or peptide, 1 μg/mL GF, vs BSA-coated wells
T3 construct: All growth factors (GFs) and chemokines were purchased in their mature forms; purchased PeproTech; host or cells: Escherichia coli
T3 sequence (P15692 27-191 isoform P15692-4 limits assumed): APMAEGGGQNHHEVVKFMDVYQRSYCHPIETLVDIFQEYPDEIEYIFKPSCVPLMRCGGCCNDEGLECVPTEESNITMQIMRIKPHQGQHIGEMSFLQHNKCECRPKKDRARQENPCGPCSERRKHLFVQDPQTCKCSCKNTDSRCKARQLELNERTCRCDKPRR
Method: as §1

[5] = Ishihara et al. 2018; Martino et al. 2013; cited from earlier work
[6] = tested on: wound healing in the db/db mouse; conditions: cited from earlier work
PDGF-BB [7] = target: T2, PDGF-BB; experiment: Surface plasmon resonance, laminin against GF; conditions: SPR; laminin protein immobilized on chip, GF flowed; Langmuir binding kinetics
Method: (§3) SPR analysis was performed as described previously^2. In brief, measurements were made with a Biacore 3000 SPR system (GE Healthcare). Laminin-521 or laminin α32928-3150 was immobilized via amine coupling on a C1 chip (GE Healthcare) for ˜2000 or ˜1000 resonance units (RU), respectively, according to the manufacturer's instructions. VEGF-A165, PDGF-BB, or PlGF-2 was flowed at increasing concentrations in the running buffer at 20 μL/min. The sensor chip was regenerated with 50 mM NaOH for every cycle. Specific bindings of GFs to laminin were calculated by comparison to a non-functionalized channel used as a reference. Experimental results were fitted with Langmuir binding kinetics using BIAevaluation software (GE Healthcare).

VEGF-A165 [8] = target: T3, VEGF-A165; experiment: Surface plasmon resonance, laminin against GF; conditions: SPR; laminin protein immobilized on chip, GF flowed; Langmuir binding kinetics
Method: as §3

PlGF-1 = target: T4, PlGF-1 (Homo sapiens, UniProt P49763); experiment: GF binding to recombinant laminin LG domain protein and synthesized laminin HBD peptides (ELISA); set-up: All growth factors (GFs) and chemokines were purchased in their mature forms; purchased PeproTech; host or cells: Escherichia coli; conditions: plate coated with LG domain protein or peptide, 1 μg/mL GF, vs BSA-coated wells
T4 sequence (P49763 19-149 isoform P49763-2 limits assumed): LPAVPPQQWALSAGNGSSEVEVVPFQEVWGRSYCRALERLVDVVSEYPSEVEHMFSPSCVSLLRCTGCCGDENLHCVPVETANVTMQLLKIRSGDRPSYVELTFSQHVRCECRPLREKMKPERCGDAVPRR
Method: as §1

VEGF-A121 = target: T5, VEGF-A121 (Homo sapiens, UniProt P15692); experiment: as above; set-up: All growth factors (GFs) and chemokines were purchased in their mature forms; purchased PeproTech; host or cells: Escherichia coli; conditions: plate coated with LG domain protein or peptide, 1 μg/mL GF, vs BSA-coated wells
T5 sequence (P15692 27-147 isoform P15692-9 limits assumed): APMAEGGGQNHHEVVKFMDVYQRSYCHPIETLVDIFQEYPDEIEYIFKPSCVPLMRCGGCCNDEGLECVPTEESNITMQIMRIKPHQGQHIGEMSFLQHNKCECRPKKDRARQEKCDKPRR
Method: as §1

[9] = peptide-coated plates, 30 min at 37° C., without EDTA

Sequence of FGF-2 (P09038 143-288): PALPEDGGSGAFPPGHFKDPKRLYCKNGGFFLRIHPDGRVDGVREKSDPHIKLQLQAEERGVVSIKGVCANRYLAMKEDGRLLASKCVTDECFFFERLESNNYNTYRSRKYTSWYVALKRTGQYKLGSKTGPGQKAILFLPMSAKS

Molecule: RLVFALGTDGKKLRIKSKEKCNDGK [α33043-3067, laminin α3 chain LG4-derived peptide, 25 aa]
- binding to PlGF-2 (PlGF-2): bound
- binding to FGF-2 (FGF-2): bound
- Interaction with GFs (GFs): ++
- binding to recombinant syndecans (syndecan 1-4) ([1]; ELISA, peptide-coated plate, 1 μg/mL syndecan): significant binding
- Interaction with Syndecans ([1]; summary Table 2): ++
- degree of migration of HUVEC cells (HUVEC cells): did not increase the degree of cell migration
- binding to heparin ([2]; ELISA, peptide-coated plate, 10 μg/mL biotinylated heparin): bound to heparin
- Interaction with Heparin ([2]; summary Table 2): ++
- HUVEC attachment in the presence of EDTA (HUVEC; peptide-coated plates, 30 min, 5 mM EDTA): even in the presence of EDTA
- HUVEC attachment (HUVEC; [9]): promoted HUVEC attachment
- Cell adhesion HUVECs (HUVEC; summary Table 2): ++
- fibroblast attachment (human lung fibroblasts; [9]): enhancement of fibroblast attachment
- Cell adhesion Fibroblasts (human lung fibroblasts; summary Table 2): ++
- binding to PDGF-BB (PDGF-BB [3]): bound
- binding to VEGF-A165 (VEGF-A165 [4]): bound

Molecule: GCGGSLRPAPPPISGGGYRARPAKAAATQKKVERKAPDA [FgHBD]
- binding to heparin [5]: bind to heparin

B1: VEGF-A165: vascular endothelial growth factor-A165, recombinant (PeproTech) (protein)
chain: APMAEGGGQNHHEVVKFMDVYQRSYCHPIETLVDIFQEYPDEIEYIFKPSCVPLMRCGGCCNDEGLECVPTEESNITMQIMRIKPHQGQHIGEMSFLQHNKCECRPKKDRARQENPCGPCSERRKHLFVQDPQTCKCSCKNTDSRCKARQLELNERTCRCDKPRR
- degree of migration of HUVEC cells (HUVEC cells): increases the degree of migration
- wound healing in the db/db mouse ([6]; 20 μg per wound applied topically for five consecutive days): promote wound healing

B2: PDGF-BB: platelet-derived growth factor-BB; Regranex in the clinic (protein)
chain: SLGSLTIAEPAMIAECKTRTEVFEISRRLIDRTNANFLVWPPCVEVQRCSGCCNNRNVQCRPTQVQLRPVQVRKIEIVRKKPIFKKATVTLEDHLACKCETVAAARPVT
- wound healing in the db/db mouse ([6]; 10 μg per wound): did not significantly enhance wound healing

B3: α32928-3150: recombinant human laminin alpha 3 LG domain Ser2928-Cys3150 (linker domain and LG4 domain), 6 His (protein)
chain: HHHHHHSLNKPPFLMLLKGSTRFNKTKTFRINQLLQDTPVASPRSVKVWQDACSPLPKTQANHGALQFGDIPTSHLLFKLPQELLKPRSQFAVDMQTTSSRGLVFHTGTKNSFMALYLSKGRLVFALGTDGKKLRIKSKEKCNDGKWHTVVFGHDGEKGRLVVDGLRAREGSLPGNSTISIRAPVYLGSPPSGKPKSLPTNSFVGCLKNFQLDSKPLYTPSSSFGVSSC
- Kd (PDGF-BB [7]): 10.2 nM
- Kd (VEGF-A165 [8]): 1.2 nM
- binding to PlGF-2 (PlGF-2): bound
- binding to PlGF-1 (PlGF-1): did not show any binding
- binding to FGF-2 (FGF-2): bound
- binding to VEGF-A121 (VEGF-A121): did not show any binding
- binding to PDGF-BB (PDGF-BB [3]): bound
- binding to VEGF-A165 (VEGF-A165 [4]): bound

B4: LamLG4: laminin α-chain LG4 domain used as growth factor-binding domain (protein)
chain: SLNKPPFLMLLKGSTRFNKTKTFRINQLLQDTPVASPRSVKVWQDACSPLPKTQANHGALQFGDIPTSHLLFKLPQELLKPRSQFAVDMQTTSSRGLVFHTGTKNSFMALYLSKGRLVFALGTDGKKLRIKSKEKCNDGKWHTVVFGHDGEKGRLVVDGLRAREGSLPGNSTISIRAPVYLGSPPSGKPKSLPTNSFVGCLKNFQLDSKPLYTPSSSFGVSSCTG
- binding to heparin [5]: bind to heparin
